{"source": "patent US20020168706A1", "biological_target": "purified RecBCD protein (Plasmid-Safe ExoV, Epicentre) (E. coli) (UniProt P08394)", "sequence (P08394 2-1180 limits assumed, chain 1 of 3)": "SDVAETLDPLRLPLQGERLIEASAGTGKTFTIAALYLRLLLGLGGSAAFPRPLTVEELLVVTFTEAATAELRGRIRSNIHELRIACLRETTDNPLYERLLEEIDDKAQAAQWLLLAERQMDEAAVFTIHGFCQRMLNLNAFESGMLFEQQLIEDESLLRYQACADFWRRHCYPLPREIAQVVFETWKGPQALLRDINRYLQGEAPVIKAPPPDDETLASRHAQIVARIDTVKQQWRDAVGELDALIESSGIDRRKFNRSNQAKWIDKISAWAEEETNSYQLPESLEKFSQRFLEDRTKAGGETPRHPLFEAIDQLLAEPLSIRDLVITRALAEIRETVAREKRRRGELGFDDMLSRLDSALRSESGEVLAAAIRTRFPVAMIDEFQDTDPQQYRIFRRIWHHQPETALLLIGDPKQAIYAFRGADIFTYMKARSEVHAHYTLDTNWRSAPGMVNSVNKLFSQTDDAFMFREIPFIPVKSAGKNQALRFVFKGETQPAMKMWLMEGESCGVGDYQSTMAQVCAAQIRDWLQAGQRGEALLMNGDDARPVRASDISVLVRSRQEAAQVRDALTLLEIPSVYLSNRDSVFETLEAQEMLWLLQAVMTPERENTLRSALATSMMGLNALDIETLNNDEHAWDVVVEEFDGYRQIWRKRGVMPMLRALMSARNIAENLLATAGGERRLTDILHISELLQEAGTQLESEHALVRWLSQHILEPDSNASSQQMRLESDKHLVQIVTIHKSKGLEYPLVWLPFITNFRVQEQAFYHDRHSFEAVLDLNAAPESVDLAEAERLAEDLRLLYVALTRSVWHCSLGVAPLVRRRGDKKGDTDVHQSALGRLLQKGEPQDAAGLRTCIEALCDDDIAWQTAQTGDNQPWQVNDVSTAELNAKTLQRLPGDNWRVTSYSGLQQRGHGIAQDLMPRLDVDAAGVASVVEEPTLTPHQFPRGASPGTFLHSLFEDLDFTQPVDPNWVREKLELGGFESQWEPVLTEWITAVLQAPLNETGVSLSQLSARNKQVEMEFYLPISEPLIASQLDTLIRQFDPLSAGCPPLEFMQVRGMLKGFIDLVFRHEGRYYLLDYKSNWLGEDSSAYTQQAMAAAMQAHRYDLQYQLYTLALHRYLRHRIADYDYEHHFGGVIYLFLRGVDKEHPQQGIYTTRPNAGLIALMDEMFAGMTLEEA", "sequence (P07648 whole entry, chain 2 of 3, further chain)": "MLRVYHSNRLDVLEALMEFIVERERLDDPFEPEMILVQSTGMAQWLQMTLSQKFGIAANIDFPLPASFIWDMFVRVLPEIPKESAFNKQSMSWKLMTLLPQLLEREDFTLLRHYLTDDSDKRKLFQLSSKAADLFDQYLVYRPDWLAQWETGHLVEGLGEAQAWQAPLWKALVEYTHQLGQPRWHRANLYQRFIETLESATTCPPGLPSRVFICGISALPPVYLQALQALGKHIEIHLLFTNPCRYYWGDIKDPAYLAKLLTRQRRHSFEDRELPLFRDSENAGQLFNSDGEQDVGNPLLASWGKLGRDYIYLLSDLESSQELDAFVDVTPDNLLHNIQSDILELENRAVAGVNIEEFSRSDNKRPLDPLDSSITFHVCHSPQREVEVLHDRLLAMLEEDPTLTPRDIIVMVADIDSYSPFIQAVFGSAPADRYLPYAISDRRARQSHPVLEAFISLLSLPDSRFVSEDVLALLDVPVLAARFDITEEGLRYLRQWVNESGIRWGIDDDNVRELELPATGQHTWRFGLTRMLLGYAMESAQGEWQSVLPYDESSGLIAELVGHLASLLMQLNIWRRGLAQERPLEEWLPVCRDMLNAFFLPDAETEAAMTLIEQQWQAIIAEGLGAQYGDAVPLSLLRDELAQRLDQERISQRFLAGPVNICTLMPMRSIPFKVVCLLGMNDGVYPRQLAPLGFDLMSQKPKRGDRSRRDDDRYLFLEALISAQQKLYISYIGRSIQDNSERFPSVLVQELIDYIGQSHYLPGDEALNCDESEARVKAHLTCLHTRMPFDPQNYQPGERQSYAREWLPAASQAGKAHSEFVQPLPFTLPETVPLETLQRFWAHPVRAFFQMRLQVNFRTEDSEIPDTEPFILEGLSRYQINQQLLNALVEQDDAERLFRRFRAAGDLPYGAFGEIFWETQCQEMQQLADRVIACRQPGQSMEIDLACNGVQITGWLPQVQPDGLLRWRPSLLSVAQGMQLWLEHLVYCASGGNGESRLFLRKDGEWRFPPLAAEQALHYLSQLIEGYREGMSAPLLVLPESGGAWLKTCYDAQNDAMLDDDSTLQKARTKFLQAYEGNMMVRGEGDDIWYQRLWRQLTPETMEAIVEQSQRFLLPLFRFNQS", "sequence (P04993 whole entry, chain 3 of 3, further chain)": "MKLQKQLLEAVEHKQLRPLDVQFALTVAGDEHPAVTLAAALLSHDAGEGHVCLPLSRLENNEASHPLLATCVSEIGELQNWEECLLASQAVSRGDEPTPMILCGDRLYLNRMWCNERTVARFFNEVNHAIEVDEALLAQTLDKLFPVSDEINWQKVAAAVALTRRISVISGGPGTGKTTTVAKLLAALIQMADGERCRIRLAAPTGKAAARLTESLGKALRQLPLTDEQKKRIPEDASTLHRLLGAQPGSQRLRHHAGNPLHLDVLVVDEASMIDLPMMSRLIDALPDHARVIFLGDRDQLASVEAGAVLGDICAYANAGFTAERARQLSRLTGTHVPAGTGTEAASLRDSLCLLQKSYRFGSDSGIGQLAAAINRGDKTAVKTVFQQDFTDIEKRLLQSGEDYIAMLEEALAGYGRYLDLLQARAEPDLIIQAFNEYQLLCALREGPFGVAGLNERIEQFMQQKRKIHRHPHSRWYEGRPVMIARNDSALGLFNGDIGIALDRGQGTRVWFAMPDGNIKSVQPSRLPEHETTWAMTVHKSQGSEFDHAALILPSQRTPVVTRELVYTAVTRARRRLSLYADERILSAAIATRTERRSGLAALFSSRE", "experiment": "cell-based or functional assay", "data": [{"substance": "GamS (short form of the bacteriophage lambda Gam protein, expressed from pLDE136, partially purified MonoQ pool) (from UniProt P03702 1-98)", "values": [{"measurement": "specific activity of GamS in the Gam-mediated RecBCD inhibition assay", "value": "160 to 200", "unit": "U/µg"}]}]}
